In article PMC12781872, “Differential association of primary and alternative σ factors with RNA polymerase of Mycobacterium tuberculosis during transcription elongation” (Nucleic Acids Research, 2026):

Molecular target: T1, Mycobacterium tuberculosis RNA polymerase core (α2ββ'ω), wildtype (Mycobacterium tuberculosis, UniProt P9WGZ1;P9WGY9;P9WGY7;P9WGY5)
T1 construct: also called Mtb RNAP core; unlabelled RNAP core; copies: 2 + + +
Assay: native gel or EMSA
Conditions: both partners purified

T1 sequence (P9WGZ1 whole entry, chain 1 of 4): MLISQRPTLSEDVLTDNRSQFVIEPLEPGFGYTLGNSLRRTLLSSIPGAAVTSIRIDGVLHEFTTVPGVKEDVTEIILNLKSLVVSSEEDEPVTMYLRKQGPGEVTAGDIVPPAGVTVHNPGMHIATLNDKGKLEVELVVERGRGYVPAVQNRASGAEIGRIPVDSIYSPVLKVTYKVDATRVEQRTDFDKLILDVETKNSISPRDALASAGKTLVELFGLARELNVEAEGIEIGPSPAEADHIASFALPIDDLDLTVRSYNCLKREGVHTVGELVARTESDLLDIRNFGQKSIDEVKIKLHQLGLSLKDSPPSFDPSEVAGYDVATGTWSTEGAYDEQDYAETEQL
T1 sequence (P9WGY9 whole entry, chain 2 of 4): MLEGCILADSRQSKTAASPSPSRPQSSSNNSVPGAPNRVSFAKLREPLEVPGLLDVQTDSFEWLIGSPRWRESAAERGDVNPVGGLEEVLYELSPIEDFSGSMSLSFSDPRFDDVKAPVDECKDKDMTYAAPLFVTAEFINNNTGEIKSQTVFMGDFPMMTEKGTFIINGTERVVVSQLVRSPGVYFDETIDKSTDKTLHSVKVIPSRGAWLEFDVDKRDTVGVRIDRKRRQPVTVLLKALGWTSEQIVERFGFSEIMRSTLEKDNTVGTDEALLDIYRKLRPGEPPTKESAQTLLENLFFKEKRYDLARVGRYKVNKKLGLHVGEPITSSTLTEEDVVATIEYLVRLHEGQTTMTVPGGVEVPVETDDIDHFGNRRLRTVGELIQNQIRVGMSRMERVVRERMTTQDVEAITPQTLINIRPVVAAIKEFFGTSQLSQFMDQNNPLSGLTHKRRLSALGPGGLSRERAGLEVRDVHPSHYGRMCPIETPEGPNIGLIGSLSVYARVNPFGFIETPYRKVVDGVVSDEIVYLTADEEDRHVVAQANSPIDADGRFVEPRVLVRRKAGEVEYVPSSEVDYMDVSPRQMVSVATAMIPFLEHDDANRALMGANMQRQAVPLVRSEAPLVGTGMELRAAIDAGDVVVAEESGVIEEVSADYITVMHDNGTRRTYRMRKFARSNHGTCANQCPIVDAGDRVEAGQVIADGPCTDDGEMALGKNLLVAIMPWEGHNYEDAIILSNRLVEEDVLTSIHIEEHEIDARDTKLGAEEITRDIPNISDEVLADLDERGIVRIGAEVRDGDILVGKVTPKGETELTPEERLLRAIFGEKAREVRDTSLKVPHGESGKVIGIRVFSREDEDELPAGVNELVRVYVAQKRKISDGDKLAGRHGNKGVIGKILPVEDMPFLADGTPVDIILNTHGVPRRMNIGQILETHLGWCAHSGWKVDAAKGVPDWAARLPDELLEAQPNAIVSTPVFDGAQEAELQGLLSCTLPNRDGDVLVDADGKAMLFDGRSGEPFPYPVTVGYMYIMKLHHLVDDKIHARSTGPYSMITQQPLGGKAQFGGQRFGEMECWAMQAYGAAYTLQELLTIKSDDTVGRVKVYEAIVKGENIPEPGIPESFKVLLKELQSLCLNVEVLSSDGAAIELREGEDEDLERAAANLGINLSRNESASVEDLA
T1 sequence (P9WGY7 whole entry, chain 3 of 4): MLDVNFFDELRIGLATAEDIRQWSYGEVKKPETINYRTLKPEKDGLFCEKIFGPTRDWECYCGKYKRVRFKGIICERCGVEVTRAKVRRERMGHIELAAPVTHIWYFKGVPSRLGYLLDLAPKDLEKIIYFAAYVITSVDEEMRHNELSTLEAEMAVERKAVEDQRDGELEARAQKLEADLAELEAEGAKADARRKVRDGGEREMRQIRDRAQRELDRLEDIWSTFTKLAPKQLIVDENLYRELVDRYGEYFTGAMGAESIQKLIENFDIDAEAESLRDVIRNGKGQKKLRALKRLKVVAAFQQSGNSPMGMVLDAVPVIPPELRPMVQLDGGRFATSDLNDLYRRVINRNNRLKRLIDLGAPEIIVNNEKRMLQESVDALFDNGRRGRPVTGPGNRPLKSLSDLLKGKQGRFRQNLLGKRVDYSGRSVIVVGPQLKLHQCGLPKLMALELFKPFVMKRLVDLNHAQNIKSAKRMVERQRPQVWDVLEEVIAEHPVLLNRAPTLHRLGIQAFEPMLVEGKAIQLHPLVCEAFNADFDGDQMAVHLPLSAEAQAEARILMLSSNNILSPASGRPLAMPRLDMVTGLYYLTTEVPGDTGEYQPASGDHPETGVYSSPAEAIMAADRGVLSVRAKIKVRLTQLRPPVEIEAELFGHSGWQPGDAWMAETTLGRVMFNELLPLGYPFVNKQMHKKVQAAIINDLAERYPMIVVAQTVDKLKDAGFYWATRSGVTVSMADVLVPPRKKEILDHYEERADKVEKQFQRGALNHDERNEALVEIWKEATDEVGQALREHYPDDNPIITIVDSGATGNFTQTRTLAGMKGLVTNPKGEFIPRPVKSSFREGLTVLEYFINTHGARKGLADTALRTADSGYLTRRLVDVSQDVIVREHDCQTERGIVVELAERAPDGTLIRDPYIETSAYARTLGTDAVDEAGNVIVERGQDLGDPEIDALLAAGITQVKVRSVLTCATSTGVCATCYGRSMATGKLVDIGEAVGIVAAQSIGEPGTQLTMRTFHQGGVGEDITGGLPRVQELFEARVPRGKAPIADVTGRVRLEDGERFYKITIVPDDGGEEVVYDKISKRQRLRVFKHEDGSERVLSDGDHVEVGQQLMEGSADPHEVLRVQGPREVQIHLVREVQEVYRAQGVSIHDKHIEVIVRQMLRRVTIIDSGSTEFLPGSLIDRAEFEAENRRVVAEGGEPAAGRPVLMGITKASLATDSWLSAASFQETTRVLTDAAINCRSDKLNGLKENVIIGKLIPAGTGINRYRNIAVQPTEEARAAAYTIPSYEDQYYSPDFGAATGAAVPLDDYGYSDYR
T1 sequence (P9WGY5 whole entry, chain 4 of 4): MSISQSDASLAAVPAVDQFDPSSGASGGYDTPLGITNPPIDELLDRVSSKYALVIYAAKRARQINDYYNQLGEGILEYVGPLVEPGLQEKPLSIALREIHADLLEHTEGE

B1: Alexafluor-488 labelled Mtb σ^A (natural protein)
chain: MAATKASTATDEPVKRTATKSPAASASGAKTGAKRTAAKSASGSPPAKRATKPAARSVKPASAPQDTTTSTIPKRKTRAAAKSAAAKAPSARGHATKPRAPKDAQHEAATDPEDALDSVEELDAEPDLDVEPGEDLDLDAADLNLDDLEDDVAPDADDDLDSGDDEDHEDLEAEAAVAPGQTADDDEEIAEPTEKDKASGDFVWDEDESEALRQARKDAELTASADSVRAYLKQIGKVALLNAEEEVELAKRIEAGLYATQLMTELSERGEKLPAAQRRDMMWICRDGDRAKNHLLEANLRLVVSLAKRYTGRGMAFLDLIQEGNLGLIRAVEKFDYTKGYKFSTYATWWIRQAITRAMADQARTIRIPVHMVEVINKLGRIQRELLQDLGREPTPEELAKEMDITPEKVLEIQQYAREPISLDQTIGDEGDSQLGDFIEDSEAVVAVDAVSFTLLQDQLQSVLDTLSEREAGVVRLRFGLTDGQPRTLDEIGQVYGVTRERIRQIESKTMSKLRHPSRSQVLRDYLD
notes: also called AF488 labelled σ^A; σ^A-488
- fractional occupancy relative to RPo, at RPitc (sinP3): ~95%
- fractional occupancy relative to RPo, at TEC+16 (sinP3): 77%
- fractional occupancy relative to RPo, at TEC+23 (sinP3): 72%
- fractional occupancy relative to RPo, at TEC+29 (sinP3): 63%
- fractional occupancy relative to RPo, at TEC+59 (sinP3): 49%

B2: TMR-labelled Mtb σ^F (wild type, labelled at the natural cysteine, residue 47 of σ2) (natural protein)
chain: MTARAAGGSASRANEYADVPEMFRELVGLPAGSPEFQRHRDKIVQRCLPLADHIARRFEGRGEPRDDLIQVARVGLVNAAVRFDVKTGSDFVSFAVPTIMGEVRRHFRDNSWSVKVPRRLKELHLRLGTATADLSQRLGRAPSASELAAELGMDRAEVIEGLLAGSSYHTLSIDSGGGSDDDARAITDTLGDVDAGLDQIENREVLRPLLEALPERERTVLVLRFFDSMTQTQIAERVGISQMHVSRLLAKSLARLRDQLE
notes: also called TMR-labelled σ^F; σ^F labelled with TMR at region 2
- fractional occupancy relative to RPo, at RPitc (usfXP1): ~96%
- fractional occupancy relative to RPo, at TEC+17 (usfXP1): 89%
- fractional occupancy relative to RPo, at TEC+23 (usfXP1): 87%
- fractional occupancy relative to RPo, at TEC+28 (usfXP1): 83%
- fractional occupancy relative to RPo, at TEC+64 (usfXP1): 82%

B3: TMR-labelled Mtb σ^E used in EMSA and anisotropy assays (natural protein)
chain: MELLGGPRVGNTESQLCVADGDDLPTYCSANSEDLNITTITTLSPTSMSHPQQVRDDQWVEPSDQLQGTAVFDATGDKATMPSWDELVRQHADRVYRLAYRLSGNQHDAEDLTQETFIRVFRSVQNYQPGTFEGWLHRITTNLFLDMVRRRARIRMEALPEDYDRVPADEPNPEQIYHDARLGPDLQAALASLPPEFRAAVVLCDIEGLSYEEIGATLGVKLGTVRSRIHRGRQALRDYLAAHPEHGECAVHVNPVR
notes: also called TMR-labelled σ^E; labelled σ^E
- fractional occupancy relative to RPo, at RPitc (sigB): ~93%
- fractional occupancy relative to RPo, at TEC+15 (sigB): 55%
- fractional occupancy relative to RPo, at TEC+23 (sigB): 47%
- fractional occupancy relative to RPo, at TEC+27 (sigB): 45%
- fractional occupancy relative to RPo, at TEC+84 (sigB): 38%
